From patent US20210253725A1 (BIONTECH, published 2021)

T1: CD27 expressed on the cell surface of HT1080_CD27 cells (human, UniProt P26842 20-260)
T1 construct: whole, on cells; species not restated for the HT1080 transfectant
T1 sequence (looked up): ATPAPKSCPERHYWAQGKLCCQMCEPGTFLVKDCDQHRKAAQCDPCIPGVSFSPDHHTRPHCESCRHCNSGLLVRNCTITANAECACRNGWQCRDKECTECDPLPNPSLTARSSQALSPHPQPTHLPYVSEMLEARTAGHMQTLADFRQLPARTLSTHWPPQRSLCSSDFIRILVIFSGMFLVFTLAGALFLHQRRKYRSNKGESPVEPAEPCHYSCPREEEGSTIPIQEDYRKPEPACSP

T2: CD27 protein (His-tagged, Sino Biological Inc. 10039-H08B1) (human, UniProt P26842 20-192)
T2 construct: bought protein coated on ELISA plates; also called TNFRSF7; not shown: His tag
T2 sequence (looked up): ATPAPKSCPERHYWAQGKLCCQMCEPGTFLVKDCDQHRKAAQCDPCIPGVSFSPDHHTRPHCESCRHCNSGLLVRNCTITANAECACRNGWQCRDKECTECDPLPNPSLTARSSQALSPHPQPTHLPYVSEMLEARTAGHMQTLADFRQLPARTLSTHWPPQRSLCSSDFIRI


Legend:
[1] = molecular target: T1, CD27 expressed on the cell surface of …; assay: HT1080_CD27 cells, imaging; further: test concentration or dose not given here
[2] = molecular target: T1, CD27 expressed on the cell surface of …; assay: cell-based or functional assay
[3] = molecular target: T2, CD27 protein (His-tagged, Sino …); assay: ELISA, coated His-tagged CD27; further: test concentration or dose not given here
[4] = molecular target: T1, CD27 expressed on the cell surface of …; assay: cell-based or functional assay; remark: listed apart in the source
Wherever Functional assay Cross-linked by F(ab′)2 fragment IL-8 is given: test concentration or dose not given here.
Wherever Functional assay IL-8 is given: test concentration or dose not given here.

Binder	Cellular binding assay [RFU] [1]	Functional assay Cross-linked by F(ab′)2 fragment IL-8 [2]	Functional assay IL-8 [2]	ELISA [abs. corr.] [3]	EC 50 (IL-8 release, cross-linked) [4]
P018.S.09.A.F06 (antibody, V domains shown, V regions on human Ig constant parts; also called AB27_158) VH: QSVEESGGRLVTPGGSLTLTCSVSGIDLSSYAMNWVRQAPGKGLEWIGIISTGGSTYYANWAKGRFTISKTSTTVDLKITSPTTEDTATYICARDVGGTTVPYYFDLWGPGTLVTVSS VL: AYDMTQTPASMEVAVGGTVTIKCQASESISSWLAWYQQKPGQPPKPLIYEASRLASGVPSRFKGSGSGTEFTLTISGVESADAATYYCQQGYGSSDVHNIFGGGTEVVVK	218 RFU	2.03 abs. corr.	0.58 abs. corr.	2.98 abs. corr.	–
P018.S.06.A.H05 (antibody, V domains shown, V regions on human Ig constant parts; also called AB27_112) VH: QSLEESGGDLVQPEGSLTLTCKASGFDFSSTYWICWVRQAPGKGLEWIGCIDDSYAYTYYASWAKGRFTISKPSSTTVTLQVTSLTVADTATYFCARDGYPGYGVGSFNLWGPGTLVTVSS VL: AIVMTQTPSSKSVPVGDTVTINCQASESVYSNNRLAWFQQKPGQPPKLLIYLASTLASGVPSRFKGSGSGTQFTLTISDVVSDDAATYYCAGYKSYSDDGTGFGGGTEVVVK	308 RFU	1.56 abs. corr.	0.278 abs. corr.	2.98 abs. corr.	–
P018.S.06.A.A05 (antibody, V domains shown, V regions on human Ig constant parts; also called AB27_97) VH: QSLEESGGRLVTPGTPLTLTCTVSGIDLSSYAMGWVRQAPGKGLELIGLIYASNRTHYATWAKGRFTISKSSTTVDLKATSLTTEDTATYFCGRYGRGSGGYYYGMDLWGPGTLVTVSS VL: DVVMTQTPASVEAAVGGTVTIKCQASQSGDNYLSWYQQKSGQPPKLLIYLASTLASGVPSRFRGSRSGTEYTLTISDLESADAATYYCQNYCAGSGVCVGVAFGGGTEVVVK	140 RFU	1.09 abs. corr.	0.433 abs. corr.	2.95 abs. corr.	–
P018.S.05.A.D06 (antibody, V domains shown, V regions on human Ig constant parts; also called AB27_88) VH: QSVEESGGRLVTPGTPLTLTCTVSGFSLSSYWMSWVRQAPGKGLEWIGFIYGGSGDKYYASWAKGRFAISKTSTTVDLKITSPTTEDTATYFCARGGDGDGTYSSLWGQGTLVTVSS VL: AQVLTQTPSPVSAAVGGTVTISCQSSESVAGKNLAWYQQKPGQPPKVLIYGTSNLASRVPSRFRGSGSGTQFTLTISDLESDDAATYYCQGYYSGGIYGFGGGTEVVVE	323 RFU	1.23 abs. corr.	0.338 abs. corr.	2.93 abs. corr.	–
P018.S.10.A.H02 (antibody, V domains shown) VH: QSLEESGGRLVTPGGSLTLTCTVSGIDLSSYAMGWFRQAPGKGLEYIGIIYSSGSTWFANWVKGRFTISKTSTTVDLKMTSLTTEDTATYFCARYSAADHGDKFKLWGQGTLVTVSS VL: AAVLTQTPSPVSAAVGGTVSISCQSSKNIFDNTRLSWFQQKPGQPPKQLIYGASTLASGVPSRFSGSGSGTQFTLTISGVQSDDAATYYCLGEYSSDSDTSFGGGTEVVVK	–	–	–	–	0.122 µg/mL
P018.S.10.A.H05 (antibody, V domains shown, V regions on human Ig constant parts; also called AB27_186) VH: QSLEESGGRLVTPGTPLTLTCTASGFSLSTYYMSWVRQAPGKGLEWIGIIYTSGSTYYASWAKGRFTISRNSTTVDLKITSPTTEDTATYFCARSRVPGDTTGLYYFNLWGPGTLVTVSS VL: ALVMTQTPASVSAAVEGTVTINCQASENIYSNLAWYQQKPGQPPKLLIYHTSNLASGVPSRFKGSGAGTEFTLTISDLESDDAATYYCQSAYDSSSSDTFTFGGGTEVVVK	313 RFU	1.11 abs. corr.	-0.155 abs. corr.	2.96 abs. corr.	–
P018.S.09.A.H06 (antibody, V domains shown) VH: QSVEESGGRLVKPDETLTLTCTVSGIDLTSYAMGWVRQAPGEGLEWIGAIGSGGGIYYASWARGRFTISKTSSTTVDLKIPSPTTEDTATYFCARVPQWAYLDLWGQGTLVTVSS VL: AQVLTQTPASVSAAVGGTVTISCQSSESVYKNNYLSWYQQKPGQPPKLLIYDASTLASGVPSRFSGSGSGTQFTLTISGVQSEDAATYYCQGYYGGGIFTFGGGTEVVVK	–	–	–	–	0.329 µg/mL

The next lines start with the values.

Cellular binding assay [RFU] [1]	Functional assay Cross-linked by F(ab′)2 fragment IL-8 [2]	Functional assay IL-8 [2]	ELISA [abs. corr.] [3]	EC 50 (IL-8 release, cross-linked) [4]	Binder
269 RFU	1.27 abs. corr.	0.031 abs. corr.	2.98 abs. corr.	–	P018.S.03.A.G05 (antibody, V domains shown, V regions on human Ig constant parts; also called AB27_58) VH: QSLEESGGDLVKPEGSLTLTCTASGFSFSSGGWICWVRQAPGRGLEWIACIYVGSSGTTHYASWAKGRFTISKTSSTTVTLQMTSLTAADTATYFCARGAVYGGGSYDNFHLWGPGTLVTVSS VL: AYDMTQTPASVSEPVGGTVTIKCQASQSIGSYLSWYQQKPGQRPKLLIYAASTLASGVQSRFKGSGSGTDYTLTISGVQSDDAATYYCQQGYNISNLDNTFGGGTEVVVK
279 RFU	1.18 abs. corr.	0.106 abs. corr.	2.94 abs. corr.	–	P018.S.06.A.B01 (antibody, V domains shown, V regions on human Ig constant parts; also called AB27_98) VH: QSLEESGGGLVKPEGSLTLTCTASGFSFSSSYWICWVRQAPGKGLEWIGCIYAGTFSDTFYASWTKGRFTISKTSSTTVTLQMTSLTGADTATYFCARGHYYYTDNYTANGYGRGLTRLDLWGQGTLVTVSS VL: AAVLTQTPSPVSAAVGGTVTISCQASQSVYNNNNLAWYQQKAGQPPKLLIYGASNLESGVPSRFKGSGSGTQFTLTISDLESDDAASYYCAGGYTTSGDNGFGGGTEVVVK
–	–	–	–	0.234 µg/mL	P018.S.10.A.E04 (antibody, V domains shown) VH: QSLEESGGDLVKPGASLTLTCTASGFSFSSSYWICWVRQAPGKGLEWVACISAPGSGSTFDASWAKGRFTISKTSSTTVTLQMTSLTAADTATYFCARFYAGGSGDYFDLWGPGTLVTVSS VL: QIVMTQTPSSTSEPVGGTVSIKCQASQNIGSYLAWYQQKPGQPPKVLIYTTSDLASGVPSRFKGSGSGTQFTLTISDLESDDAATYYCLGVYGYSSDDVAFGGGTEVVVK
–	–	–	–	0.335 µg/mL	P018.S.10.A.A04 (antibody, V domains shown) VH: QSVEESGGRLVTPGTPLTLTCTVSGIDLSSNVMTWVRQAPGKGLEWIGYIYASATTYYATWAKGRFTISKTSTTVDLKMTSPTTEDTATYFCARERLASRGDYSDLWGQGTLVTVSS VL: AYDMTQTPASVEAAVGGTVTIKCQASESIGDLLAWYQQKPGQPPKLLIYDASDLASGVPSRFKGSGSGTEFTLTISGVESADAATYYCQQGYTTTSNVDNIFGGGTEVVVK
305 RFU	1.61 abs. corr.	0.172 abs. corr.	2.98 abs. corr.	–	P018.S.09.A.E02 (antibody, V domains shown, V regions on human Ig constant parts; also called AB27_153) VH: QSLEESGGRLVTPGTPLTLTCTASGFTISSHHMTWVRQAPGEGLEWLGVIFPSGHTYYTSWAKGRFTISRTSTTVDLKMASLTIEDTATYFCVRDVGYFTLWGQGTLVTVSS VL: AQVLTQTPSPVSAAVGGTVTISCQSSESVGGNNWLAWYQQKLGQPPKLLIYGASTLASGVPSRFSGSGSGTQFTLTISEVQSDDAATYYCQGYYSDVTNAFGGGTEVVVE
–	–	–	–	0.221 µg/mL	P018.S.09.A.C06 (antibody, V domains shown) VH: QSVEESGGRLVTPGTPLTLTCTVSGFSLSTYAMGWVRQAPGKGLEWIGIIYTGGSTYYASWAEGRFTISKTSTTVDLKITSPTPEDTATYFCTRDLGATYDYFDLWGQGTLVTVSS VL: AYDMTQTPASVEVAVGGTVTIKCQASQSISTALAWYQQKPGQRPKLLIYDTSDLASGVPSRFSGSGSGTEFTLTISGVESADAATYYCQQGYRHTNVDNPFGGGTGVVVK
266 RFU	1.1 abs. corr.	-0.046 abs. corr.	2.93 abs. corr.	–	P018.S.10.A.C01 (antibody, V domains shown, V regions on human Ig constant parts; also called AB27_170) VH: QSVEESGGRLVTPGTPLTLTCTLSGFSLSNYAMSWVRQAPGKGLEWIGVIYTSGTTHYASWAKGRFTISKTSTTVDLRMTSLTTEDTATYFCARSRYYGSGWGGYYFNLWGQGTLVTVSS VL: DVVMTQTPSPVSAAVGGTVTINCQASEDIYSLLAWYQQKPGQRPKLLIYGASNLESGVPSRFKGSGSGTEYTLTISGVQSADAATYYCHGGTYTGSADINAFGGGTEVVVE
323 RFU	1.07 abs. corr.	0.07 abs. corr.	2.94 abs. corr.	–	P018.S.09.A.C02 (antibody, V domains shown, V regions on human Ig constant parts; also called AB27_147) VH: QSVEESGGRLVTPGTPLTLTCTVSGIDLSSYVMSWVRQAPGKGLEWIGYIDYGGTAYYASWAKGRFTISKTSTTVELKITSPTIEDTATYFCARGGYGGYTLVTALWGPGTLVTVSS VL: DIVMTQTPASVSEPVGGTVTIKCQASQSISSYLSWYQQKPGQPPKLLIYSTSTLASGVSSRFKGSGSGTEYTLTISDLESADAATYYCQTYYGGGPFGNGFGGGTEVVVK
332 RFU	1.42 abs. corr.	0.538 abs. corr.	2.93 abs. corr.	–	P018.S.02.A.B01 (antibody, V domains shown, V regions on human Ig constant parts; also called AB27_29) VH: QSVEESGGRLVTPGTPLTLTCTVSGMDLSSYSMSWVRQAPGEGLEYIGFIGSSGGTYYASWAKGRFTISRTSTTVDLNITSPTTEDTATYFCARMLAGVYTRLDLWGQGTLVTVSS VL: AQVLTQTPSSVSAAVGGTVTINCQASQSISSSYCSWYQQKPGQPPKLLIYKASTLASGVPSRFKGSGSGTQFTLTISDVQSDDAATYYCAGDFIASSGNAFGGGTEVVVK
